Data as given in patent publication US20050124036.

The substances below were run on plasminogen according to the present invention (20 mg/ml, Example 8).

| Substance | plasmin activity after activation |
| --- | --- |
| Protease XIII | 0.01 U/mg |
| Ficin | 0.01 U/mg |
| Thrombin | 83.0 U/mg |
| Protease from S. griseus | 613.3 U/mg |
| Proteinase A | 0.02 U/mg |
| Elastase | 0.63 U/mg |
| Trypsin | 11 kU/mg |
| Protease XVIII | 0.7 U/mg |
| Protease VIII | 9 U/mg |
| Endoproteinase Asp-N | 4.3 U/mg |
| Endoproteinase Glu-C | 0.6 U/mg |
